Positions count from the first letter of the chain named.
Target: T1, fibroblast activation protein (FAP) expressed on human cell lines LL86, COLO 829 and U-87 MG (human, UniProt Q12884 1-760)
T1 construct: the assays used endogenous FAP on human cell lines
Assay: flow cytometry on LL86, COLO 829 and U-87 MG cells, anti-human IgG detection, MFI fold over background
Procedure: Multi-specific binding proteins or corresponding monoclonal antibodies (mAb) having the same FAP binding site were diluted and incubated with the cells. Binding was detected using fluorophore-conjugated anti-human IgG secondary antibody. Cells were analyzed by flow cytometry and express as mean fluorescence intensity (MFI) normalized to human recombinant IgG1 stained controls to obtain fold over background (FOB) values.

B1: corresponding monoclonal antibody having the same FAP binding site as FAP-multi-specific BP 4G8 (antibody, V domains shown)
VH: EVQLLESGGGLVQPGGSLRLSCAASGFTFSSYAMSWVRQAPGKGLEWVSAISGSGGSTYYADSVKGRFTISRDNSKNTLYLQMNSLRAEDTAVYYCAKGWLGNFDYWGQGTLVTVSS
VL: EIVLTQSPGTLSLSPGERATLSCRASQSVSRSYLAWYQQKPGQAPRLLIIGASTRATGIPDRFSGSGSGTDFTLTISRLEPEDFAVYYCQQGQVIPPTFGQGTKVEIK
notes: also called FAP-mAb; anti-FAP mAb
binding result: binds

B2: corresponding monoclonal antibody having the same FAP binding site as FAP-multi-specific BP 29B11 (antibody, V domains shown)
VH: EVQLLESGGGLVQPGGSLRLSCAASGFTFSSYAMSWVRQAPGKGLEWVSAIIGSGGITYYADSVKGRFTISRDNSKNTLYLQMNSLRAEDTAVYYCAKGWFGGFNYWGQGTLVTVSS
VL: B1 VL with S30T, R31S, I50N, G51V, A52G, T54R, Q93I, V94M, I95L
notes: as for B1
binding result: binds

B3: corresponding monoclonal antibody having the same FAP binding site as FAP-multi-specific BP Sibrotuzumab (antibody, V domains shown)
VH: QVQLVQSGAEVKKPGASVKVSCKTSRYTFTEYTIHWVRQAPGQRLEWIGGINPNNGIPNYNQKFKGRVTITVDTSASTAYMELSSLRSEDTAVYYCARRRIAYGYDEGHAMDYWGQGTLVTVSS
VL: DIVMTQSPDSLAVSLGERATINCKSSQSLLYSRNQKNYLAWYQQKPGQPPKLLIFWASTRESGVPDRFSGSGFGTDFTLTISSLQAEDVAVYYCQQYFSYPLTFGQGTKVEIK
notes: as for B1
binding result: binds

Source: patent US20210363261A1 (DRAGONFLY THERAPEUTICS, published 2021)
